The results in this text go back to publication PMC7693302.

This assay has as its target S2 domain of SARS-CoV-2 S protein (from S protein with FLAG at both N- and C-termini) (SARS-CoV-2). Description: co-sedimentation.

Regarding “S1 domain of S^G614 (from S protein with FLAG at both N- and C-termini) (domain or fragment)”, the fold S1:S2 ratio against PV^D614 came to 3.5 fold.
